Positions count from the first letter of the chain named.
Experiments:
[1] = molecular target: T1, biotinylated human VWF cysteine knot (CK) domain construct (human, biotin on the in vitro biotinylation tag (residue not stated); one N-glycan); assay: SPR, scFv captured on anti-SV5, pH 7.4; apparent Kd
T1 construct: Disulfide-linked homodimer; also called biotinylated human VWF CK domain; human VWF CK domain construct
T1 chain: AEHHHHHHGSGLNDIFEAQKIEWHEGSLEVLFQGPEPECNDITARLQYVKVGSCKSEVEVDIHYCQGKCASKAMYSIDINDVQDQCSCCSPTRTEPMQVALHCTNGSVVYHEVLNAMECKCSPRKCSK

VWF in human plasma [2] = molecular target: T2, VWF in human plasma (human, UniProt P04275 764-2813); assay: collagen type III binding ELISA; human plasma (5 donors) 17 h 37 °C with 600 nM antibody; VWF bound to collagen relative to untreated plasma; ligand collagen type III
T2 construct: Endogenous VWF in donor plasma, not purified; multimeric; also called VWF in plasma; VWF in platelet rich plasma
Experimental: Following incubation, collagen binding was determined relative to untreated plasma.

VWF in human plasma [3] = molecular target: T2, VWF in human plasma; assay: VWF:FVIIIB enzyme immunoassay; human plasma (5 donors) 17 h 37 °C with 200 nM antibody; FVIII bound to captured VWF relative to untreated plasma; ligand FVIII
[4] = molecular target: T3, His-StrepTagII-HRV3C-cyno VWF-CK-HA-tag (cynomolgus monkey); assay: solution-phase equilibrium binding, free antibody by ELISA; apparent Kd; pH 7.4; mean ± SD, n=2
T3 construct: it begins with the VWF signal peptide, whose limits were marked only by underlining that is lost in the text, so it was not cut off; The CK domain forms disulfide-linked homodimers; also called recombinant cyno CK domain; Cyno CK
T3 chain: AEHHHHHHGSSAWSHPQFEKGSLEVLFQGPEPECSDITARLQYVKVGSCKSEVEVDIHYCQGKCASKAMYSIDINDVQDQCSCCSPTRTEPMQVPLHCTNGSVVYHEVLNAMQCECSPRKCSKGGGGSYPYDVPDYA
Experimental: (§1) Following incubation for 30 min at room temperature to establish equilibrium, unbound antibody was quantified by ELISA using the immobilized human CK domain for capture and HRP-conjugated goat anti-human IgG Fc antibody for detection.
(§2) Following a single wash of the plate with 200 μL of wash buffer (TBS containing 0.05% (v/v) Tween-20 and 5 mM CaCl₂), the plate was blocked by incubation with 200 μL blocking buffer (TBS containing 5 mM CaCl₂ and 1% (w/w) BSA) for 1 hour at room temperature. […] Incubation lasted 3 min and was followed by 5-min incubation with 100 μL HRP-conjugated goat anti-human IgG Fc antibody for detection (1 mg/mL stock diluted 1:20,000 in blocking buffer). Before and after addition of a detection antibody, the plate was washed 5 times with 200 μL wash buffer. A chromogenic horseradish peroxidase (HRP) substrate (100 μL) was then added and following color development for 3 min, 100 μL ELISA stop solution were added to quench the reaction. Absorbance was measured at 450 nm with subtraction of the absorbance at 620 nm.
(§3) The standard curve prepared with free antibody was fitted to a Sigmoidal four-parameter logistic (4PL) model.

[5] = molecular target: T4, His-StrepTagII-HRV3C-human VWF-CK-HA-tag (human); assay: as above
T4 construct: it begins with the VWF signal peptide, whose limits were marked only by underlining that is lost in the text, so it was not cut off; The CK domain forms disulfide-linked homodimers (CK dimer); also called recombinant human CK domain; Human CK
T4 chain: T3 chain with S35N, P95A, Q113E, E115K
Experimental: as §1, §2, §3

human plasma-derived VWF = molecular target: T5, human plasma-derived VWF (human, UniProt P04275 764-2813); assay: as above
T5 construct: multimeric; also called pd-VWF; Human VWF
Experimental: as §1, §2, §3

VWF in human plasma [6] = molecular target: T2, VWF in human plasma; assay: flow cytometry, FITC anti-VWF on platelets; human PRP (2 donors), 0.5 mg/ml ristocetin, 600 nM antibody; relative to the same plasma without antibody; receptor platelet gp1b
Experimental: PRP was prepared by centrifuging the blood at 250 g for 15 min. […] Sample analysis was performed on a flow cytometer. Using forward (FSC) and sideward (SSC) scatter pattern, a gate was placed on the platelets.

VWF in human plasma [7] = molecular target: T2, VWF in human plasma; assay: VWF:FVIIIB enzyme immunoassay; human plasma (5 donors) 17 h 37 °C with 600 nM antibody; FVIII bound to captured VWF relative to untreated plasma; ligand FVIII
[8] = molecular target: T3, His-StrepTagII-HRV3C-cyno VWF-CK-HA-tag; assay: solution-phase equilibrium binding, free antibody by ELISA; apparent Kd; pH 5.5; mean ± SD, n=2
Experimental: as §1, §2, §3

[9] = molecular target: T4, His-StrepTagII-HRV3C-human VWF-CK-HA-tag; assay: as above
Experimental: as §1, §2, §3

B1: Lib1_P1_A9_scFv (scFv, not shown: small tags and cut ends)
scFv: QVQLVQSGAEVKKPGASVKVSCKVSGDTLSSYGIHWVRQAPGKGLEWMGGSIPSFGTAIYAQKFQGRVTMTEDTSTDTAYMELSSLKSEDTAVYYCTSEGPWLPFFSFDYWGQGTLVTVSSSGGSTITSYNVYYTKLSSSGTDIQMTQSPSSVSASVGDRVTITCRASQGISRNLAWYQQKPGKAPKLLIYKASSLASGVPSRFSGSGSGTDFTLTISSLQPEDFANYYCQQSFSTPVTFGGGTKVEIK
notes: soluble scFv, VH-linker-VL, expressed in S. cerevisiae (applies to all 63 scFvs)
Kd [1]: 0.05 nM

B2: Lib1_P1_A9 OA (antibody, human IgG4 S228P, kappa, F234A L235A)
heavy: QVQLVQSGAEVKKPGASVKVSCKVSGDTLSSYGIHWVRQAPGKGLEWMGGSIPSFGTAIYAQKFQGRVTMTEDTSTDTAYMELSSLKSEDTAVYYCTSEGPWLPFFSFDYWGQGTLVTVSSASTKGPSVFPLAPCSRSTSESTAALGCLVKDYFPEPVTVSWNSGALTSGVHTFPAVLQSSGLYSLSSVVTVPSSSLGTKTYTCNVDHKPSNTKVDKRVESKYGPPCPPCPAPEAAGGPSVFLFPPKPKDTLMISRTPEVTCVVVDVSQEDPEVQFNWYVDGVEVHNAKTKPREEQFNSTYRVVSVLTVLHQDWLNGKEYKCKVSNKGLPSSIEKTISKAKGQPREPQVYTLPPSQEEMTKNQVSLSCAVKGFYPSDIAVEWESNGQPENNYKTTPPVLDSDGSFFLVSRLTVDKSRWQEGNVFSCSVMHEALHNHYTQKSLSLSLG
chain: ESKYGPPCPPCPAPEAAGGPSVFLFPPKPKDTLMISRTPEVTCVVVDVSQEDPEVQFNWYVDGVEVHNAKTKPREEQFNSTYRVVSVLTVLHQDWLNGKEYKCKVSNKGLPSSIEKTISKAKGQPREPQVYTLPPSQEEMTKNQVSLWCLVKGFYPSDIAVEWESNGQPENNYKTTPPVLDSDGSFFLYSRLTVDKSRWQEGNVFSCSVMHEALHNHYTQKSLSLSLG
light: DIQMTQSPSSVSASVGDRVTITCRASQGISRNLAWYQQKPGKAPKLLIYKASSLASGVPSRFSGSGSGTDFTLTISSLQPEDFANYYCQQSFSTPVTFGGGTKVEIKRTVAAPSVFIFPPSDEQLKSGTASVVCLLNNFYPREAKVQWKVDNALQSGNSQESVTEQDSKDSTYSLSSTLTLSKADYEKHKVYACEVTHQGLSSPVTKSFNRGEC
notes: also called monovalent (one-arm) Lib1_P1_A9
Collagen binding (% control) (VWF in human plasma [2]): 106 % control | VWF:FVIII level (% of control) (VWF in human plasma [3]): 91.1 % of control | Kd [4]: 10.2 nM | Kd [5]: 5.3 nM | Kd (human plasma-derived VWF): 5.7 nM | Platelet binding (% control) (VWF in human plasma [6]): 89.7 % control | VWF:FVIII level (% of control) (VWF in human plasma [7]): 93.9 % of control | Kd [8]: 26.4 nM | Kd [9]: 17.9 nM

B3: Lib1_P1_A6 OA (antibody, human IgG4 S228P, kappa, F234A L235A)
heavy: QVQLVQSGAEVKKPGASVKVSCKVSGSTFSNYAIHWVRQAPGKGLEWMGGIVPLSGTAIYAQKFQGRVTMTEDTSTDTAYMELSSLKSEDTAVYYCARDQGESSGWYAIYYGMDVWGQGTTVTVSSASTKGPSVFPLAPCSRSTSESTAALGCLVKDYFPEPVTVSWNSGALTSGVHTFPAVLQSSGLYSLSSVVTVPSSSLGTKTYTCNVDHKPSNTKVDKRVESKYGPPCPPCPAPEAAGGPSVFLFPPKPKDTLMISRTPEVTCVVVDVSQEDPEVQFNWYVDGVEVHNAKTKPREEQFNSTYRVVSVLTVLHQDWLNGKEYKCKVSNKGLPSSIEKTISKAKGQPREPQVYTLPPSQEEMTKNQVSLSCAVKGFYPSDIAVEWESNGQPENNYKTTPPVLDSDGSFFLVSRLTVDKSRWQEGNVFSCSVMHEALHNHYTQKSLSLSLG
chain: B2 chain
light: DIQMTQSPSSVSASVGDRVTITCRASQGIGTWLAWYQQKPGKAPKLLIYGSSSRASGVPSRFSGSGSGTDFTLTISSLQPEDFANYYCQQSYGKPTFGGGTKVEIKRTVAAPSVFIFPPSDEQLKSGTASVVCLLNNFYPREAKVQWKVDNALQSGNSQESVTEQDSKDSTYSLSSTLTLSKADYEKHKVYACEVTHQGLSSPVTKSFNRGEC
notes: also called monovalent (one-arm) Lib1_P1_A6
Collagen binding (% control) (VWF in human plasma [2]): 103 % control | VWF:FVIII level (% of control) (VWF in human plasma [3]): 89.7 % of control | Kd [4]: 3.4 nM | Kd [5]: 2.7 nM | Kd (human plasma-derived VWF): 2.7 nM | Platelet binding (% control) (VWF in human plasma [6]): 69.2 % control | VWF:FVIII level (% of control) (VWF in human plasma [7]): 88.6 % of control | Kd [8]: 13 nM | Kd [9]: 8.2 nM

B4: 17561_Lib6_scFv (scFv, not shown: small tags and cut ends)
scFv: EVQLVQSGAEVKKPGASVKVSCKASGYTFTDLPISWVRQAPGQGLEWMGWINPYTGDTNYAQKLQGRGTMTTDPSTSTAYMELRSLRSDDTAVYYCARDGVILGYYYYYGMDVWGQGTTVTVSSSGGSTITSYNVYYTKLSSSGTESALTQPASVSGSPGQSITISCTGTDLGSKSVSWYQQHPGKAPKLMIYDNFNRPSGVSNRFSGSKSGNTASLTISGLQAEDEADYYCSSRTVSGTYVFGGGTKLTVL
Kd [1]: 10 nM
